Reference: patent publication US20040138134A1
Where no end group is shown, it is not given here.

Each binder was assayed against natriuretic peptide receptor on C3H10T1/2 cells (assay: cell-based or functional assay).

First: CIGLKLDRIGSMSGLGC [CNP variant SEQ ID NO:28]
Second: CFGLKLDRIGSMSLLGC [CNP variant SEQ ID NO:59]
The % relative binding (cGMP, Biotrak EIA, peptide at 10^-6 M) of the first is lower: 13.9% for the first, 15.3% for the second.

Going from CFGLKLDRIGTMSGLGC [CNP variant SEQ ID NO:56] to CFGLKLDRIGSMSGGGC [CNP variant SEQ ID NO:64], the % relative binding (cGMP, Biotrak EIA, peptide at 10^-6 M) falls from 74.1% to -10.1%.

First: CFGLKLDRIGSMSGMGC [CNP variant SEQ ID NO:62]
Second: CAGLKLARIGSMSGLGC [CNP variant SEQ ID NO:24]
The % relative binding (cGMP, Biotrak EIA, peptide at 10^-6 M) of the first is higher: 51.3% for the first, -5.85% for the second.

Compared with CVGLKLDRIGSMSGLGC [CNP variant SEQ ID NO:32], CFGLKLDRIGSKSGLGC [CNP variant SEQ ID NO:67] is higher in % relative binding (cGMP, Biotrak EIA, peptide at 10^-6 M): 5.74% for the first, 66.9% for the second.

First: CFGLKLDRTGSMSGLGC [CNP variant SEQ ID NO:53]
Second: CFGLKLDRVGSMSGLGC [CNP variant SEQ ID NO:52]
The % relative binding (cGMP, Biotrak EIA, peptide at 10^-6 M) of the first is lower: -1.95% for the first, 27.1% for the second.

Compared with CFGLKLDRIGNMSGLGC [CNP variant SEQ ID NO:57], CTGLKLDRIGSMSGLGC [CNP variant SEQ ID NO:34] is lower in % relative binding (cGMP, Biotrak EIA, peptide at 10^-6 M): 27.4% for the first, -6.9% for the second.

Going from CFGLMLDRIGSMSGLGC [CNP variant SEQ ID NO:44] to CFGLKLMRIGSMSGLGC [CNP variant SEQ ID NO:39], the % relative binding (cGMP, Biotrak EIA, peptide at 10^-6 M) rises from 5.42% to 7.78%.

First: CFGAKLDRIGSMSGLGC [CNP variant SEQ ID NO:40]
Second: CFGLKLDRIGGMSGLGC [CNP variant SEQ ID NO:55]
The % relative binding (cGMP, Biotrak EIA, peptide at 10^-6 M) of the first is lower: 20.2% for the first, 27.8% for the second.

Compared with CFGLKLDRLGSMSGLGC [CNP variant SEQ ID NO:51], CFGLKLDRIGAMSGLGC [CNP variant SEQ ID NO:54] is higher in % relative binding (cGMP, Biotrak EIA, peptide at 10^-6 M): 14.2% for the first, 54.5% for the second.

Compared with CFGLKLARIGSASGLGC [CNP variant SEQ ID NO:26], CFGLKLDRIGSMSGQGC [CNP variant SEQ ID NO:61] is lower in % relative binding (cGMP, Biotrak EIA, peptide at 10^-6 M): 5.75% for the first, -3.47% for the second.

First: CFGLLLDRIGSMSGLGC [CNP variant SEQ ID NO:43]
Second: CWGLKLDRIGSMSGLGC [CNP variant SEQ ID NO:31]
The % relative binding (cGMP, Biotrak EIA, peptide at 10^-6 M) of the first is higher: 29.7% for the first, -10.8% for the second.

Compared with CFGLKLDHIGSMSGLGC [CNP variant SEQ ID NO:48], CFGLKLDQIGSMSGLGC [CNP variant SEQ ID NO:50] is lower in % relative binding (cGMP, Biotrak EIA, peptide at 10^-6 M): 13.5% for the first, 12% for the second.

First: CFGLKLDRIGSMSALGC [CNP variant SEQ ID NO:58]
Second: CAGLKLARIGSASGLGC [CNP variant SEQ ID NO:27]
The % relative binding (cGMP, Biotrak EIA, peptide at 10^-6 M) of the first is higher: 53.6% for the first, -10.4% for the second.

First: CFGIKLDRIGSMSGLGC [CNP variant SEQ ID NO:41]
Second: CMGLKLDRIGSMSGLGC [CNP variant SEQ ID NO:30]
The % relative binding (cGMP, Biotrak EIA, peptide at 10^-6 M) of the first is higher: 47.4% for the first, -1.34% for the second.

First: CFGLKLDRIGSSSGLGC [CNP variant SEQ ID NO:68]
Second: CFGLKLIRIGSMSGLGC [CNP variant SEQ ID NO:38]
The % relative binding (cGMP, Biotrak EIA, peptide at 10^-6 M) of the first is higher: 62.5% for the first, 7.23% for the second.

First: CFGLKLNRIGSMSGLGC [CNP variant SEQ ID NO:37]
Second: CFGLKLDRIGSWSGLGC [CNP variant SEQ ID NO:65]
The % relative binding (cGMP, Biotrak EIA, peptide at 10^-6 M) of the first is lower: 17.2% for the first, 66.5% for the second.

Going from CLGLKLDRIGSMSGLGC [CNP variant SEQ ID NO:29] to CFGLKLQRIGSMSGLGC [CNP variant SEQ ID NO:36], the % relative binding (cGMP, Biotrak EIA, peptide at 10^-6 M) falls from 6.25% to -17.1%.

Compared with CHGLKLDRIGSMSGLGC [CNP variant SEQ ID NO:33], CFGLKLDKIGSMSGLGC [CNP variant SEQ ID NO:49] is higher in % relative binding (cGMP, Biotrak EIA, peptide at 10^-6 M): 5.7% for the first, 21.5% for the second.

First: CFGLKADRIGSMSGLGC [CNP variant SEQ ID NO:45]
Second: CFGLKIDRIGSMSGLGC [CNP variant SEQ ID NO:46]
The % relative binding (cGMP, Biotrak EIA, peptide at 10^-6 M) of the first is lower: 11.3% for the first, 88.1% for the second.

Compared with CFGLKLERIGSMSGLGC [CNP variant SEQ ID NO:35], CFGLKVDRIGSMSGLGC [CNP variant SEQ ID NO:47] is higher in % relative binding (cGMP, Biotrak EIA, peptide at 10^-6 M): 9.45% for the first, 66.7% for the second.

Going from CFGLKLDRIGSMSKLGC [CNP variant SEQ ID NO:60] to CFGLKLDRIGSMSGAGC [CNP variant SEQ ID NO:63], the % relative binding (cGMP, Biotrak EIA, peptide at 10^-6 M) falls from 49.2% to -1.11%.

Going from CFGVKLDRIGSMSGLGC [CNP variant SEQ ID NO:42] to CFGLKLDRIGSGSGLGC [CNP variant SEQ ID NO:69], the % relative binding (cGMP, Biotrak EIA, peptide at 10^-6 M) falls from 64.2% to 62.1%.

CFGLKLDRIGSHSGLGC [CNP variant SEQ ID NO:66] was tested, and the % relative binding (cGMP, Biotrak EIA, peptide at 10^-6 M) was 66.2%.

Target: natriuretic peptide receptor on C3H10T1/2 cells
Experiment: cell-based or functional assay
Remark: another data set of the same source

First: CFGLKLDRIGSMSC [CNP variant SEQ ID NO:14]
Second: CFGLKLDRIGAQC [CNP variant SEQ ID NO:19]
The % relative binding (cGMP, Biotrak EIA, peptide at 10^-6 M) of the first is higher: 29.9% for the first, 3.8% for the second.

Going from CHFGLKLDRIGSMAC [CNP variant SEQ ID NO:12] to CHFGLKLDRIC [CNP variant SEQ ID NO:23], the % relative binding (cGMP, Biotrak EIA, peptide at 10^-6 M) falls from 21.7% to 3.8%.

Going from CHFGLKLDRIGSMSC [CNP variant SEQ ID NO:11] to GLSKGCFGLKLDRIGSMSGLGC [CNP 1-22 (native human CNP, 22-mer)], the % relative binding (cGMP, Biotrak EIA, peptide at 10^-6 M) rises from 25.9% to 100%.

Compared with CFGLKLDRIGSMC [CNP variant SEQ ID NO:16], CFGLKLDRIGSQC [CNP variant SEQ ID NO:18] is lower in % relative binding (cGMP, Biotrak EIA, peptide at 10^-6 M): 17.3% for the first, 11.8% for the second.

First: CAGLKLDRIGSMSGLGC [CNP variant SEQ ID NO:6]
Second: CHFGLKLDRIGSC [CNP variant SEQ ID NO:20]
The % relative binding (cGMP, Biotrak EIA, peptide at 10^-6 M) of the first is higher: 43.8% for the first, 11.9% for the second.

Going from CFGLKLDRIGSC [CNP variant SEQ ID NO:21] to CFGLKLDRIGAMC (ends and bridges not checked; cysteine pairing not given here) [CNP variant SEQ ID NO:17], the % relative binding (cGMP, Biotrak EIA, peptide at 10^-6 M) falls from 22.7% to 3.4%.

Going from CFGLKLARIGSMSGLGC [CNP variant SEQ ID NO:7] to CFGLKLDRAGSMSGLGC [CNP variant SEQ ID NO:9], the % relative binding (cGMP, Biotrak EIA, peptide at 10^-6 M) falls from 49.1% to 11.5%.

Going from CFGLKLDAIGSMSGLGC [CNP variant SEQ ID NO:8] to CHFGLKLDRIGAQSC [CNP variant SEQ ID NO:13], the % relative binding (cGMP, Biotrak EIA, peptide at 10^-6 M) rises from 18.4% to 26.5%.

Compared with CFGLKLDRIGAQSC [CNP variant SEQ ID NO:15], CFGLKLDRIGC [CNP variant SEQ ID NO:22] is lower in % relative binding (cGMP, Biotrak EIA, peptide at 10^-6 M): 20.6% for the first, 4.2% for the second.
